IntAct's records for PubMed 9153189

B1: Tumor necrosis factor receptor superfamily member 14 (Homo sapiens), Q92956 (parent)
chain: MEPPGDWGPPPWRSTPKTDVLRLVLYLTFLGAPCYAPALPSCKEDEYPVGSECCPKCSPGYRVKEACGELTGTVCEPCPPGTYIAHLNGLSKCLQCQMCDPAMGLRASRNCSRTENAVCGCSPGHFCIVQDGDHCAACRAYATSSPGQRVQKGGTESQDTLCQNCPPGTFSPNGTLEECQHQTKCSWLVTKAGAGTSSSHWVWWFLSGSLVIVIVCSTVGLIICVKRRKPRGDVVKVIVSVQRKRQEAEGEATVIEALQAPPDVTTVAVEETIPSFTGRSPNH
B2: Tumor necrosis factor receptor superfamily member 14 (Homo sapiens), Q92956 (parent)
chain: B1 chain
partner: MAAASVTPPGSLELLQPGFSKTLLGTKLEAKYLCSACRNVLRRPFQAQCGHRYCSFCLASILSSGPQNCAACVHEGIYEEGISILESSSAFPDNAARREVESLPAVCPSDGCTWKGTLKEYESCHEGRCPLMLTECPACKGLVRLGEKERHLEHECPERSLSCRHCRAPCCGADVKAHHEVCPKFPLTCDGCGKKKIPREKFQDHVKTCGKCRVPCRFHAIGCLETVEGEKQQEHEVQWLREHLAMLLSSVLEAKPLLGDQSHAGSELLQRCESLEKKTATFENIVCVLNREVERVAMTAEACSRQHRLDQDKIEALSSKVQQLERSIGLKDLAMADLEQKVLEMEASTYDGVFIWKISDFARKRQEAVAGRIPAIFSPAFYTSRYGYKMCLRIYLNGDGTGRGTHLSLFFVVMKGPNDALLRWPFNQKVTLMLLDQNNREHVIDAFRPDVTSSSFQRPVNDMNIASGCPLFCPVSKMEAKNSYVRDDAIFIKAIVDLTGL

Variants of: B1
Settings: with traf5_human TRAF5, O00463
Sequence of traf5_human TRAF5, O00463 (O00463 whole entry): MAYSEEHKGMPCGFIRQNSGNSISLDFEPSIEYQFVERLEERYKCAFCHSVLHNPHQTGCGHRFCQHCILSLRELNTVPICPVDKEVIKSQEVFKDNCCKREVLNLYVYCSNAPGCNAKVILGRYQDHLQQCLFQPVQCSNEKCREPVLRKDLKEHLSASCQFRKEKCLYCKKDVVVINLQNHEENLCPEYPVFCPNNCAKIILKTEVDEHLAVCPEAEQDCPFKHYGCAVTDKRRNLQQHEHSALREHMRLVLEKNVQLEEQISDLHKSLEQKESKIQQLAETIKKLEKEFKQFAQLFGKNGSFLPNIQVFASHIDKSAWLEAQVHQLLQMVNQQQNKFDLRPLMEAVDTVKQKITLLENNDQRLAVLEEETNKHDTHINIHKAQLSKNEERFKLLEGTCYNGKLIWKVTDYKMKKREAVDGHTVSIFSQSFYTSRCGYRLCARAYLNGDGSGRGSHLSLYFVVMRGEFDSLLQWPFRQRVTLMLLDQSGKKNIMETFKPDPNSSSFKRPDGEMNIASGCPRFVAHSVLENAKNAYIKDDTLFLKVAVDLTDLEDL

effect of a mutation on the interaction | Variant
decreasing interaction | E271A

Variants of: B2
Settings: with traf2_human TRAF2, Q12933

effect of a mutation on the interaction | Variant
decreasing interaction | E271A
